Legend:
[1] = target: T1, recombinant BMPER (BMP endothelial cell precursor-derived regulator) ( (recombinant human and …, UniProt Q8N8U9 40-685)); test: SPR; BIAcore 2000; IGFBP-4 immobilised at 360 RU on CM5 by amine coupling; 0-320 nM BMPER injected in HBS-EP (0.01 M HEPES pH 7.4, 0.15 M NaCl, 3 mM EDTA, 0.005% P20), 180 s association, 180 s dissociation; 1:1 model with mass transfer; apparent KD = kd/ka; details: both partners purified
T1 construct: BMPER, recombinant protein used as analyte in SPR; whether this holds for the SPR proteins is surmised; Secreted glycoprotein; also called soluble BMPER; source: recombinant

[2] = target: T1, recombinant BMPER (BMP endothelial cell …); test: SPR; BIAcore 2000; BMP-4 immobilised at 430 RU on CM5 by amine coupling; 0-320 nM BMPER or IGFBP-4 injected in HBS-EP; 1:1 model with mass transfer; apparent KD = kd/ka; details: both partners purified

T1 sequence (Q8N8U9 40-685): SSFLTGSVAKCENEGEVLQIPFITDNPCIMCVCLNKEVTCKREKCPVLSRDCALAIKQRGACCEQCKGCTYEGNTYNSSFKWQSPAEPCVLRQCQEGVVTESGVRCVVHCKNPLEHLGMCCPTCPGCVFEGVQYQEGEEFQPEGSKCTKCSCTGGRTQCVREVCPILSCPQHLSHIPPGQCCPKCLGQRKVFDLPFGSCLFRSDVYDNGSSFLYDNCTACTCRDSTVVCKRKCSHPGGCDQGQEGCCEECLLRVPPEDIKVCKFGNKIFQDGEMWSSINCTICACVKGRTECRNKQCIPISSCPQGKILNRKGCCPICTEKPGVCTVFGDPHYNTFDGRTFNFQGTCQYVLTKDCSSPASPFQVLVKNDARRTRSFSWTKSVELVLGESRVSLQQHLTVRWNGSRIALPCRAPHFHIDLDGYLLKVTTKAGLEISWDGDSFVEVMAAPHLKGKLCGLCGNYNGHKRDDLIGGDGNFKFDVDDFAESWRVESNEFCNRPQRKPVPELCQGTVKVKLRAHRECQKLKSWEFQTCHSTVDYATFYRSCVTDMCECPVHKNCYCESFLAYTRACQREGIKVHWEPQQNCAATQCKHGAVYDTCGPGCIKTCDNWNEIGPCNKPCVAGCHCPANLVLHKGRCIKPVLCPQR

Binder	Kd [1] [nM]	Kd [2] [nM]
recombinant IGFBP-4 (insulin-like growth factor-binding protein 4) (natural protein, UniProt P22692 22-258, looked up, IGFBP4, recombinant protein immobilised or injected in SPR; whether this holds for the SPR proteins is surmised; source: recombinant) DEAIHCPPCSEEKLARCRPPVGCEELVREPGCGCCATCALGLGMPCGVYTPRCGSGLRCYPPRGVEKPLHTLMHGQGVCMELAEIEAIQESLQPSDKDEGDHPNNSFSPCSAHDRRCLQKHFAKIRDRSTSGGKMKVNGAPREDARPVPQGSCQSELHRALERLAASQSRTHEDLYIIPIPNCDRNGNFHPKQCHPALDGQRGKCWCVDRKTGVKLPGGLEPKGELDCHQLADSFRE	6.04 ± 1.86	–
BMP-4 (bone morphogenetic protein 4) (ligand, UniProt P12644 293-408, looked up, BMP4, immobilised on a CM5 chip in SPR) SPKHHSQRARKKNKNCRRHSLYVDFSDVGWNDWIVAPPGYQAFYCHGDCPFPLADHLNSTNHAIVQTLVNSVNSSIPKACCVPTELSAISMLYLDEYDKVVLKNYQEMVVEGCGCR	–	1.5
